Test results from a protein production outcome set (Wang et al. 2014).

experiment: label from the status in PepcDB records

Sequence	protein production
MRFRQLLPLFGALFALYIIWGSTYFVIRIGVESWPPLMMAGVRFLSAGMLLMAFLLLRGEKLPPLRQTINAALIGLLLLAVGNGLVTVAEHQNVPSGIAAVVVATVPLFTLCFSYFFGIKTRKLEWVGIAIGLAGIILLNSGGNLSGNPWGAILILIGSMSWAFGSVYGSRIALPVGMMAGAIEMLAAGVVLLCAAFLSGEKLATLPGLSGLMAVGYLALFGSIIAINAYMYLIRNVSPALATSYAYVNPVVAVLLGTGLGGERLSPVEWAALGVIVFAVVLVTLGKYLFPARAVVTPCKTEDSRQ	failed
MRFVATGDWQLGMTAHYLSTEARPRFHRARLDAVKRIGEIAAEQSCDFVVVCGDVFESNQLDRAIISRTFEVLAAFTVPVVLLPGNHDPLDAASIYDSHAFTSRQPGHVHVLRDSEPFEVRPGVEIIGAPWFSKRPQGDLVAQATQNLAEAAPGKVRIIAGHGAVSTLDPDRESLATIDVDSLKTVLREDRAQFVALGDRHATYAVDERIWYSGAPEVTSRREDDPGNVLLVDIDAQSHASSVEKMHIGRWSYLVVEEDVNSDEDVSHLEQRLADIPDKDSTAVWLILRGTLSTAAKSRLDDILDHATDLFALVSLWERHTDIAVVAADEDFAGLGLSGYLQESLDELAETAAGEDLSASAAQDALGLLYRFARSGS	failed
MRGEFYQQLTNDLETARAEGLFKEERIITSAQQADITVADGSHVINFCANNYLGLANHPDLIAAAKAGMDSHGFGMASVRFICGTQDSHKELEQKLAAFLGMEDAILYSSCFDANGGLFETLLGAEDAIISDALNHASIIDGVRLCKAKRYRYANNDMQELEARLKEAREAGARHVLIATDGVFSMDGVIANLKGVCDLADKYDALVMVDDSHAVGFVGENGRGSHEYCDVMGRVDIITGTLGKALGGASGGYTAARKEVVEWLRQRSRPYLFSNSLAPAIVAASIKVLEMVEAGSELRDRLWANARQFREQMSAAGFTLAGADHAIIPVMLGDAVVAQKFARELQKEGIYVTGFFYPVVPKGQARIRTQMSAAHTPEQITRAVEAFTRIGKQLGVIA	not failed
MRGFFSNPWIRWALSLAFLGVILFFLRDQLDFLKMGIQQIRHVSPVGVALTMVALVLSFVAMARVMQIMLKAGGSPATLKATTALTFAANSWSATLPGGPAFSAILTYKVQRSWGASAVLCSWFFLLSSALSTVWLVALGVIAVFYMGASLNLWSLIATFIAMVGLSGAVYWAANNPDSLARWVRKLTKNREWGFVEKLLGSIEQLRSVSLTGPQFAASTAWSLGNRLFDAISLWICIWAVTGTAPMFEPEPNNTTIAGVLLAYTTAKIAGSIQATPGGIGPIEAAYIAALVATGMTAVEAAGAVIIYRLCSFIIMAIVGWVIYFIYFTPQGLKANESLDVEQDTINSDSNRQSAIERPDT	failed
MRGGSLWQLGQSITRRLAQSDKKVVSRRYFASEADLKKTALYDFHVAHGGKMVPFAGWSMPIQYKDSIMDSTVNCRENGSLFDVAHMCGLSLKGKDCVPFLETLVVADVAGLAPGTGSLTVFTNEKGGAIDDSVITKVTDEHIYLVVNAGCRDKDLAHIEEHMKAFKSKGGDVSWHIHDERSLLALQGPLAAPVLQHLTKEDLSKLYFGNFQILDINGSTCFLTRTGYTGEDGFEISVPDEHAVDLAKAILEKSEGKVRLTGLGARDSLRLEAGLCLYGNDMEQHISPVEAGLTWAIGKRRRAEGGFLGADVILQQLKDGPTIRRVGFFSSGPPARSHSEVHDESGNKIGEITSGGFSPNLKKNIAMGYVKSGQHKTGTKVKILVRGKPYEGSITKMPFVATKYYKPT	failed
MRGLSSLLLMIVLALLLYPLPHGVILIGIMTLSLLSHTLGIISLGILALYLIVFRITNIVGVAIMALGLLVVEIREMEKIRAPMEHFLYLIVAVGLSLLTYFGVYAISLAGVSLDVTLLAVLFLLLLYAFIRISVLSP	failed
MRHFDASQPLRVAVLGTGFGSKVHIPALQHHSETTVQAVYHRQPDRAAAIAVQFGIPNAYSDLDQLLADPAIEAVTIASPPFLHYPMAWAALSAGKSVLLEKPTTLNVEEARALWKLASSQGLTVTLDFEYRFVPAWQYVAELLAEGVIGQPWLVKLDWLMSSRADASRPWNWYALRSQGGGALGALGSHSFDYLAWLFGPARRLQARLFTAIQERPDATTGELKPVDSDDTDLIQLELAEGVPCQISLSSVFRQGRGHWLEVYGDRGTLILGSSNQKDYVHGFQVWFASAGQALQELTVPQRLAFRQEFADGRLAPFLRVVDHWLADLRHGQMTAPSLKEGLYSQLLIDLCWQSQRSGEWQTVPELNRFLLEHHHHHH	failed
MRHGEIARAARSAVPRRARAALPLACAALVAAGLAARAAGAAAPPPAPPAAAPARVLSAAVKGPITGGTVEYLEAALARARTGGFAALVVTLDTPGGQLDATREIVQAMLATEVPVIVWVGPAGARAGSAGVFLTLAADVAAMHPTSNIGAAHPVTGAGKDVAEEAGKDMAKKVENDTAAFARSVAAARGRNADWAEKAVRESVSVTAEEALRLKVADLTAADLPELLAKADGRKVGQGAAARPLKVAGAAIEPYEPTVRQRLLGFLADPNVMAILMLVGMLGIAVEFYHPGMIFPGAVGGFCLFLAFLAMRVIPVNVGAVILLLAGVGLLVAEAYVTAHGLAGLAGAACLVLGTLFFVNTSAPGDWFDPGALRLSPWVIWPTPAALALLLAFMAWNVARVRRAPLQLGAPALVGAPGEALSEIGPAAGEAFVHGEYWQARSAAPIPRGAAVRVVAVEGLTVTVVAAGPGNG	failed
MRHLITSLQNHNGQLKGEVQRYKRKYKDTSTDNLKLRQELADALATLEGNKLQAATGAAGEEIKQENSTGVKEENSNNVSASGQTNQTNSGNDTNVAIKEENHISAEDEADDEASGKDVKDGIKQEKLSSGDAAAAEKKDSPGPGNSTSSATNSVPVKNEKDSKDGVKGKDVKAVESETV	failed
MRHNIKFKSKGTLKIRNTAQISLWKKCSDSMIADQTYLFINRVQDRRFDEESLRILELSLVAMNVKSFLEVRSRLRDFMRSESVVIFGELTGESMVAKLSVLEFFARAFALLGDMESCLAMRYEALNLRQLKSPSCLWLGVSHSEWTKFAVQSMENGFPSIAGKASENALLSLKKDSLIEPKSEDNSDILDAAEKVRRLRDSAASLTSSHSGIFIYIVSSLKFAVCNRLLTTF	failed
MRHWLILFLLALPCLAGAVSFNEQVERLPLGQSIDVFEDVRGSADINDITSRAIDSSFRRHDKDVLNAGYSRSVFWLRLDLDYRPVASSDPRTWLLELAYPPLDKLDLYLPDGQGGYRLAQRTGDTLPFASRPIRQNNYLFELGLEPNKPQRVYLRLESQGSIQAPLTLWSPKAYLEEQPERIYVLGIIYGVLLVMLIYNLFIFLSVRDTSYLYYILYIASFGLYQVSVNGAGIEYFWPDSPWWANAATPFLIGSAALFGCQFARSFLHTRDHSVWVDRGLLALMAVGALVMLMALTMSYAVALRLATYLALAFTGLIFAAGILAWLRGMRVARYFIIAWTAFLLGGIVNTLMVLGYLPNMFLTMYASQIGSALEVGLLSLALADRINAMKEERARILQESSRKLEALNQELANSNRLKDEFLATVTHELRTPMSGVIGSLELMQTVPMDVELAEYQRTAAGSARDMMRMVNDILALIELQAGKLYPRREPFSLRGLFDSLRAQYAPRVEEKGLRFALQLDDSLPDTLEGDAGKLAQALGYLVDNAIKFTARGSVTLRVAAGRTHDGVALRVEVIDTGIGFDMAAGSDLYQRFVQADSSLTRGYGGLGIGLALCRKLVELLGGELTHESRPGQGSRFLLRLQLTQPAQGLAPPPRRAGGQAVRRPEECTVLVVEDNAINQLVTRGMLLKLGYRVRTADNGSEALELLARERPDGVLLDCQMPVMDGFATCRAIRALPGCAELPVLALTAHSHSGDRERCLAAGMSDYMAKPVKFEELQTLLHDWLLCQPIVTKSA	failed
MRIAGIEPESIVDGPGIRFTVFTQGCPLQCPGCHNPATWDPCGGQEVDVEEVIAAMNSSVLASGLTLSGGEASRQPRACARLARAAHEMGWDVWSWSGYTVEALMRQARRDAELADMLGQIDVLVDGPFQLVHRTLTLPWRGSSNQRVIDMPATLRGGRAVEWADRAGNLR	failed
MRIDLSVPKVGAELELNKVLGKGSSGSVSLIKYKSRLDGQTLYAAVKTSNIIHADSLLKEFQILSEFKGCSRIVQCYGTKVQETINEEGDVEFTIPMEYASGGSLRHFMSRFKDMKLPDALIRRFTRMILEGLAVIHGHGYVHCDLKPENILVFPSFELKISDFGLSKREGDSKWWLPSHPFAGTPVYMSPESISNGETRRGLDLWSLGCVVLEMYTGKRPWWDKNYDLGDLKKGSMPLISKDIPCDAKLFVMTCFASETNKRKNAFTLLRHCFLRGDVNKIIEPLVKSKNSNDIALELENIEHRLSQLRCISGG	failed
MRIGHGFDVHAFGGEGPIIIGGVRIPYEKGLLAHSDGDVALHALTDALLGAAALGDIGKLFPDTDPAFKGADSRELLREAWRRIQAKGYTLGNVDVTIIAQAPKMLPHIPQMRVFIAEDLGCHMDDVNVKATTTEKLGFTGRGEGIACEAVALLIKATK	not failed
MRIGIISVGPGNIMNLYRGVKRASENFEDVSIELVESPRNDLYDLLFIPGVGHFGEGMRRLRENDLIDFVRKHVEDERYVVGVCLGMQLLFEESEEAPGVKGLSLIEGNVVKLRSRRLPHMGWNEVIFKDTFPNGYYYFVHTYRAVCEEEHVLGTTEYDGEIFPSAVRKGRILGFQFHPEKSSKIGRKLLEKVIECSLSRR	not failed
MRIGQYQLRNRLIAAPMAGITDRPFRTLCYEMGAGLTVSEMMSSNPQVWESDKSRLRMVHIDEPGIRTVQIAGSDPKEMADAARINVESGAQIIDINMGCPAKKVNRKLAGSALLQYPDVVKSILTEVVNAVDVPVTLKIRTGWAPEHRNCEEIAQLAEDCGIQALTIHGRTRACLFNGEAEYDSIRAVKQKVSIPVIANGDITDPLKARAVLDYTGADALMIGRAAQGRPWIFREIQHYLDTGELLPPLPLAEVKRLLCAHVRELHDFYGPAKGYRIARKHVSWYLQEHAPNDQFRRTFNAIEDASEQLEALEAYFENFA	failed
MRIGVYVCHCGLNIAGVIDVSALEEMAGELEDVVLAREVQFLCSDSGQEGIIKDIKDNKIDRVVIAACSPRLHEKTFRHVMEKADLNPYLMEMVNIREQCSWVHADDPQMATQKAFDLIRMGVAKARFLRELSATSSKASRNVLIIGGGVAGIEAALNLAEAGFPVTMVERESTIGGKMALMNEVFPTNDCSICVLAPKMTEVQNHPNITLYTYSEVTDISGSVGKFHVRVTRKPRFVLEDKCKGCVDLCSEVCPVEIENPMNYGIGKSRAIYMPIPQSVPQVVLIDPDHCVGCGLCQLACPAEAVDYEQKPEEIEFEAGAVIVSTGYQLFDASRKKEYGFGKYPDVITNMQLERMLNSAGPTGGRVLVPSTGQPPESVAFIQCVGSRDKTVGNEHCSRVCCMAALKNSQMVKERYPGTDITIHYIDIRAAGEMYEEYYARTQGMGVDFIRGKVAEVYAGEDGRPVVRYENTLESRVEEEAHDLVVLSTGYEPSKAAEGIGRMLNLARRPDRFFASAHPKMRPVDAPVSGVFLAGCASGPKEIQVSIAQGSACASKVMQLLGTGELEADPMGAHVDPDKCIGCRTCVEVCKFGKISIVDKKAVVDEVSCYGCGDCSAACPVGAIQMRNFENEQILAQVRAATAHKSQCPFVVAFLCNWCSYACADLTGMSRIHYPTNIRVIRTMCSARINPEFVLEALKGGADGVLVAGCRMDECHYIHGNFDAKKRMDVLKEIIKEIGLDPKRLRTLWISAAEGERFSNTITEFVKELEEIGPIGSELKREYTATGLEEVAK	failed
MRIIKNIILISLLFAIILVSLFFGEKWVRTNVKNQAIVYNSQLNPTVMISGSSANNHRFDNLVAILNRQSTTHSLLRVQVNEDNSISYSGRIRPNDSQPYIVIGFQNNSDGYANIKRQAKWLEIAMKFLQKRYHFNHFNAFGHSNGGLDWTIYLEKYFNQKSSTIGTLMTVGSPFNFSEKSESNRTQMLTDLIKNRSKLPRDMTVYSIAGTETYNDDGIVPIESVLSGKYVFQKNVHSYTQITVSGNDSEHSDLPTNPQIVQLIQRDILDGRGQKQSSNPVFNNH	failed
